Source: US20200199241A1 (Chugai, published 2020)

T1: FcγRIIa type H (human, UniProt P12318 36-217)
T1 construct: also called FcγRIIaH; FcγRIIH
T1 sequence: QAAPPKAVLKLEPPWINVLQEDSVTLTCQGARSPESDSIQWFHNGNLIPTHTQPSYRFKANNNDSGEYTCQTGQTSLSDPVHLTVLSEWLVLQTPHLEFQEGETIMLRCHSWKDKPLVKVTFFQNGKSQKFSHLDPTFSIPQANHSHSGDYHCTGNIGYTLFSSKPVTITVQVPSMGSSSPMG

T2: FcγRIIb (human, UniProt P31994 43-217, limits assumed)
T2 construct: also called FcgRIIb; FcγIIB
T2 sequence: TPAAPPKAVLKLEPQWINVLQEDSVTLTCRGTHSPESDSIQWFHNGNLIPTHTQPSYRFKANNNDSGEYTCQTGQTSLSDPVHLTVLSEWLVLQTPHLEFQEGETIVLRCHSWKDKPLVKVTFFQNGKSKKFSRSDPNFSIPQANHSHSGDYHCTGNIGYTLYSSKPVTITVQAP


Experiments:
Assay in all cases: SPR (Biacore), bound amount, IL6R-BF648/IL6R-L = 100
FcγRIIIa type V = molecular target: T3, FcγRIIIa type V (human, UniProt P08637 17-208, limits assumed)
T3 construct: also called FcγRIIIaV; FcgRIIIaV

FcγRIa = molecular target: T4, FcγRIa (human, UniProt P12314 16-292, limits assumed)
T4 construct: also called FcgRIa; CD64

FcγRIIa type H = molecular target: T1, FcγRIIa type H
FcγRIIb = molecular target: T2, FcγRIIb

T4 sequence (P12314 16-292 limits assumed): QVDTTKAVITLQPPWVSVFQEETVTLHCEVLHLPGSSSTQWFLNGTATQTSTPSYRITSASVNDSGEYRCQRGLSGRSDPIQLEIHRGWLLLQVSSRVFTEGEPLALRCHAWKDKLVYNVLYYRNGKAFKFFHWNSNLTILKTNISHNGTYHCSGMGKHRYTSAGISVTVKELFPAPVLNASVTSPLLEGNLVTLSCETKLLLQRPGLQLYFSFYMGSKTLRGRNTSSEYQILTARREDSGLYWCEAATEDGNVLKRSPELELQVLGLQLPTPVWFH
T3 sequence (P08637 other isoform, or with tags, fused parts or gaps limits assumed): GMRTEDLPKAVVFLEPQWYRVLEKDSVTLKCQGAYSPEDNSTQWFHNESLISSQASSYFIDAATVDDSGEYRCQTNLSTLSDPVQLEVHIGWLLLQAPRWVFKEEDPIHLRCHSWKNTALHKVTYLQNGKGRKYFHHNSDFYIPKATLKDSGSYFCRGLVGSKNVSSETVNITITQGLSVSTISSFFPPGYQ

Row | Binder | relative binding activity (FcγRIIIa type V) | relative binding activity (FcγRIa) | relative binding activity (FcγRIIa type H) | relative binding activity (FcγRIIb)
1 | IL6R-BP199/IL6R-L (antibody, human IgG1, IgG1; Fc variant of IL6R-B3; copies: 2 + 2) heavy: QVQLQESGPGLVKPSETLSLTCAVSGHSISHDHAWSWVRQPPGEGLEWIGFISYSGITNYNPSLQGRVTISRDNSKNTLYLQMNSLRAEDTAVYYCARSLARTTAMDYWGEGTLVTVSSASTKGPSVFPLAPSSKSTSGGTAALGCLVKDYFPEPVTVSWNSGALTSGVHTFPAVLQSSGLYSLSSVVTVPSSSLGTQTYICNVNHKPSNTKVDKKVEPKSCDKTHTCPPCPAPDLLGGDSVFLFPPKPKDTLMISRTPEVTCVVVDVSHEDPEVKFNWYVDGVEVHNAKTKPREEQYNSTYRVVSVLTVLHQDWLNGKEYKCKVSNDALPRPIEKTISKAKGQPREPQVYTLPPSRDELTKNQVSLTCLVKGFYPSDIAVEWESNGQPENNYKTTPPVLDSDGSFFLYSKLTVDKSRWQQGNVFSCSVMHEALHNHYTQESLSLSP light: DIQMTQSPSSLSASVGDRVTITCRASQDISSYLNWYQQKPGKAPKLLIYYTSRLHSGVPSRFSGSGSGTDFTFTISSLQPEDIATYYCQQGNTLPYTFGQGTKVEIK | 103 % of control | 112 % of control | 116 % of control | 144 % of control
2 | IL6R-BP206/IL6R-L (antibody, human IgG1, IgG1; Fc variant of IL6R-B3; copies: 2 + 2) heavy: QVQLQESGPGLVKPSETLSLTCAVSGHSISHDHAWSWVRQPPGEGLEWIGFISYSGITNYNPSLQGRVTISRDNSKNTLYLQMNSLRAEDTAVYYCARSLARTTAMDYWGEGTLVTVSSASTKGPSVFPLAPSSKSTSGGTAALGCLVKDYFPEPVTVSWNSGALTSGVHTFPAVLQSSGLYSLSSVVTVPSSSLGTQTYICNVNHKPSNTKVDKKVEPKSCDKTHTCPPCPAPDLLGGDSVFLFPPKPKDTLMISRTPEVTCVVVDVSHEDGEVKFNWYVDGVEVHNAKTKPREEQYNSTYRVVSVLTVLHQDWLNGKEYKCKVSNKALPRPIEKTISKAKGQPREPQVYTLPPSRDELTKNQVSLTCLVKGFYPSDIAVEWESNGQPENNYKTTPPVLDSDGSFFLYSKLTVDKSRWQQGNVFSCSVMHEALHNHYTQESLSLSP light: DIQMTQSPSSLSASVGDRVTITCRASQDISSYLNWYQQKPGKAPKLLIYYTSRLHSGVPSRFSGSGSGTDFTFTISSLQPEDIATYYCQQGNTLPYTFGQGTKVEIK | 92 % of control | 101 % of control | 123 % of control | 168 % of control
3 | IL6R-BP213/IL6R-L (antibody, human IgG1, IgG1; Fc variant of IL6R-B3; copies: 2 + 2) heavy: QVQLQESGPGLVKPSETLSLTCAVSGHSISHDHAWSWVRQPPGEGLEWIGFISYSGITNYNPSLQGRVTISRDNSKNTLYLQMNSLRAEDTAVYYCARSLARTTAMDYWGEGTLVTVSSASTKGPSVFPLAPSSKSTSGGTAALGCLVKDYFPEPVTVSWNSGALTSGVHTFPAVLQSSGLYSLSSVVTVPSSSLGTQTYICNVNHKPSNTKVDKKVEPKSCDKTHTCPPCPAPDLLGGDSVFLFPPKPKDTLMISRTPEVTCVVVDVSDEDGEVKFNWYVDGVEVHNAKTKPREEQYNSTYRVVSVLTVLHQDWLNGKEYKCKVSNKALPRPIEKTISKAKGQPREPQVYTLPPSRDELTKNQVSLTCLVKGFYPSDIAVEWESNGQPENNYKTTPPVLDSDGSFFLYSKLTVDKSRWQQGNVFSCSVMHEALHNHYTQESLSLSP light: DIQMTQSPSSLSASVGDRVTITCRASQDISSYLNWYQQKPGKAPKLLIYYTSRLHSGVPSRFSGSGSGTDFTFTISSLQPEDIATYYCQQGNTLPYTFGQGTKVEIK | 100 % of control | 118 % of control | 123 % of control | 169 % of control

Continued, values first:

Row | relative binding activity (FcγRIIIa type V) | relative binding activity (FcγRIa) | relative binding activity (FcγRIIa type H) | relative binding activity (FcγRIIb) | Binder
4 | 88 % of control | 35 % of control | 255 % of control | 185 % of control | IL6R-BP203/IL6R-L (antibody, human IgG1, IgG1; Fc variant of IL6R-B3; copies: 2 + 2) heavy: QVQLQESGPGLVKPSETLSLTCAVSGHSISHDHAWSWVRQPPGEGLEWIGFISYSGITNYNPSLQGRVTISRDNSKNTLYLQMNSLRAEDTAVYYCARSLARTTAMDYWGEGTLVTVSSASTKGPSVFPLAPSSKSTSGGTAALGCLVKDYFPEPVTVSWNSGALTSGVHTFPAVLQSSGLYSLSSVVTVPSSSLGTQTYICNVNHKPSNTKVDKKVEPKSCDKTHTCPPCPAPELLGDDSVFLFPPKPKDTLMISRTPEVTCVVVDVSHEDGEVKFNWYVDGVEVHNAKTKPREEQYNSTYRVVSVLTVLHQDWLNGKEYKCKVSNKALPRPIEKTISKAKGQPREPQVYTLPPSRDELTKNQVSLTCLVKGFYPSDIAVEWESNGQPENNYKTTPPVLDSDGSFFLYSKLTVDKSRWQQGNVFSCSVMHEALHNHYTQESLSLSP light: DIQMTQSPSSLSASVGDRVTITCRASQDISSYLNWYQQKPGKAPKLLIYYTSRLHSGVPSRFSGSGSGTDFTFTISSLQPEDIATYYCQQGNTLPYTFGQGTKVEIK
5 | 97 % of control | 74 % of control | 103 % of control | 124 % of control | IL6R-BP207/IL6R-L (antibody, human IgG1, IgG1; Fc variant of IL6R-B3; copies: 2 + 2) heavy: QVQLQESGPGLVKPSETLSLTCAVSGHSISHDHAWSWVRQPPGEGLEWIGFISYSGITNYNPSLQGRVTISRDNSKNTLYLQMNSLRAEDTAVYYCARSLARTTAMDYWGEGTLVTVSSASTKGPSVFPLAPSSKSTSGGTAALGCLVKDYFPEPVTVSWNSGALTSGVHTFPAVLQSSGLYSLSSVVTVPSSSLGTQTYICNVNHKPSNTKVDKKVEPKSCDKTHTCPPCPAPDLLGGDSVFLFPPKPKDTLMISRTPEVTCVVVDVSHEDPEVKFNWYVDGVEVHNAKTKPREEQYNSTYRVVSVLTVLHQDWLNGKEYKCKVSNKALPRPIEKTISKAKGQPREPQVYTLPPSRDELTKNQVSLTCLVKGFYPSDIAVEWESNGQPENNYKTTPPVLDSDGSFFLYSKLTVDKSRWQQGNVFSCSVMHEALHNHYTQESLSLSP light: DIQMTQSPSSLSASVGDRVTITCRASQDISSYLNWYQQKPGKAPKLLIYYTSRLHSGVPSRFSGSGSGTDFTFTISSLQPEDIATYYCQQGNTLPYTFGQGTKVEIK
6 | 118 % of control | 81 % of control | 310 % of control | 188 % of control | IL6R-BP208/IL6R-L (antibody, human IgG1, IgG1; Fc variant of IL6R-B3; copies: 2 + 2) heavy: QVQLQESGPGLVKPSETLSLTCAVSGHSISHDHAWSWVRQPPGEGLEWIGFISYSGITNYNPSLQGRVTISRDNSKNTLYLQMNSLRAEDTAVYYCARSLARTTAMDYWGEGTLVTVSSASTKGPSVFPLAPSSKSTSGGTAALGCLVKDYFPEPVTVSWNSGALTSGVHTFPAVLQSSGLYSLSSVVTVPSSSLGTQTYICNVNHKPSNTKVDKKVEPKSCDKTHTCPPCPAPDLLGDDSVFLFPPKPKDTLMISRTPEVTCVVVDVSDEDGEVKFNWYVDGVEVHNAKTKPREEQYNSTYRVVSVLTVLHQDWLNGKEYKCKVSNKALPRPIEKTISKAKGQPREPQVYTLPPSRDELTKNQVSLTCLVKGFYPSDIAVEWESNGQPENNYKTTPPVLDSDGSFFLYSKLTVDKSRWQQGNVFSCSVMHEALHNHYTQESLSLSP light: DIQMTQSPSSLSASVGDRVTITCRASQDISSYLNWYQQKPGKAPKLLIYYTSRLHSGVPSRFSGSGSGTDFTFTISSLQPEDIATYYCQQGNTLPYTFGQGTKVEIK
7 | 153 % of control | 68 % of control | 267 % of control | 186 % of control | IL6R-BP209/IL6R-L (antibody, human IgG1, IgG1; Fc variant of IL6R-B3; copies: 2 + 2) heavy: QVQLQESGPGLVKPSETLSLTCAVSGHSISHDHAWSWVRQPPGEGLEWIGFISYSGITNYNPSLQGRVTISRDNSKNTLYLQMNSLRAEDTAVYYCARSLARTTAMDYWGEGTLVTVSSASTKGPSVFPLAPSSKSTSGGTAALGCLVKDYFPEPVTVSWNSGALTSGVHTFPAVLQSSGLYSLSSVVTVPSSSLGTQTYICNVNHKPSNTKVDKKVEPKSCDKTHTCPPCPAPELLGDDSVFLFPPKPKDTLMISRTPEVTCVVVDVSDEDGEVKFNWYVDGVEVHNAKTKPREEQYNSTYRVVSVLTVLHQDWLNGKEYKCKVSNAALPRPIEKTISKAKGQPREPQVYTLPPSRDELTKNQVSLTCLVKGFYPSDIAVEWESNGQPENNYKTTPPVLDSDGSFFLYSKLTVDKSRWQQGNVFSCSVMHEALHNHYTQESLSLSP light: DIQMTQSPSSLSASVGDRVTITCRASQDISSYLNWYQQKPGKAPKLLIYYTSRLHSGVPSRFSGSGSGTDFTFTISSLQPEDIATYYCQQGNTLPYTFGQGTKVEIK
